One block for each molecule: values may come before it.
Molecular target: T1, PPARγ2 (Homo sapiens, UniProt P37231)
T1 construct: expressed in transfected cells; host or cells: 293T
T1 sequence (P37231 1-505): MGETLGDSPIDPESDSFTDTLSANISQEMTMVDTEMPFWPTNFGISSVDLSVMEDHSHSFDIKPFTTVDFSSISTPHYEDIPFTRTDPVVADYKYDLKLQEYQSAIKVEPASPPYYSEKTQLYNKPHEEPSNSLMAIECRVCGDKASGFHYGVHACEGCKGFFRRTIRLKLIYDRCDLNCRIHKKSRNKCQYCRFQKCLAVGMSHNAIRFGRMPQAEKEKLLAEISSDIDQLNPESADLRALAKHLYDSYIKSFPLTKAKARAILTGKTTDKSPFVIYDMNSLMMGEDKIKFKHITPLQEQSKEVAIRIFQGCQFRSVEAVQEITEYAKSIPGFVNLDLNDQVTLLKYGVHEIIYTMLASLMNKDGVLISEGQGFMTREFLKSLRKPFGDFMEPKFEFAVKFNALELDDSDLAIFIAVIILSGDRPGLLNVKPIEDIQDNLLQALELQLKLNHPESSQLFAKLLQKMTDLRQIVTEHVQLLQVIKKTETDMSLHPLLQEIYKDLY
Assay: PPARγ2 transcriptional activity, FABP4-Luc luciferase reporter in transfected 293T cells
Format: cell-based
Conditions: for PPARγ2 transcriptional activity (relative luciferase activity): sLZIP or deletion mutants 0.1 μg, RZD treated
Procedure: C3H10T1/2 and 293T cells were plated in a 12-well culture dish at a density of 2×10^5 cells/well and incubated for 24 hours. Then, according to instructions of the manufacturer, the cells were transfected with a 0.2 μg of reporter genes and 0.1 to 0.5 μg of a laboratory plasmid using Lipofectamine 2000 or Genefectine. After 24 hours, the cells were cultured in a serum-free DMEM with or without 10 nM of rosiglitazone. siRNAs were prepared using sLZIP and HDAC target sequences (Table 1). For an RNA interference experiment, according to instructions of the manufacturer, the cells were transfected with scrambled control group RNA and appropriate siRNAs using Lipofectamine 2000. Human MSC and C3H10T/1/2 cells were infected with an adenovirus vector containing cDNA of human sLZIP or an empty vector. The infected medium was exchanged with a fresh medium after two hours.
Appropriately transfected cells were washed with cold PBS twice, and a reporter lysis buffer (Promega) was used and lysed in a culture dish. Luciferase analysis was performed using a luciferase analysis system (Promega Corporation, Madison, Wis.). A luciferase activity was recorded in Luminometer 20/20^n (Turner BioSystems, Sunnyvale, Calif.) according to instructions of the manufacturer. The luciferase activity was normalized to a β-galactosidase activity. For β-galactosidase analysis, CMV-β-galactosidase was transfected with luciferase reporter genes. All pieces of data were represented as mean±standard deviation of the results from at least three independent experiments.
In order to examine an effect of sLZIP on the transcriptional activity of PPARγ2, 293T cells were temporarily transfected with PPARγ2 (0.5 μg), β-galactosidase (0.1 μg), FABP4-Luc reporter genes (0.2 μg) and sLZIP at different contents (0.1 to 0.5 μg). After the transfection, the cells were stimulated with or without 10 nM of rosiglitazone (RZD) (FIG. 1A), pioglitazone (PZD) (FIG. 1B), and troglitazone (TZD) (FIG. 1C). A relative luciferase activity was analyzed with or without cell ligand treatment 24 hours after transfection. Also, the 293T cells were transiently transfected with si-sLZIP at different contents (50 and 100 nM), and the cells were treated or not treated with RZD (FIG. 1D). FABP4-Luc stable C3H10T1/2 cells were infected with a sLZIP-expressing adenovirus, and then differentiated into adipocytes for 4 days (FIG. 1E). A luciferase activity was normalized to a β-galactosidase activity and represented as a relative activity (fold change). All experiments were repeated three times, and bars in the graph represent mean±standard deviation. *, P<0.05; **, P<0.01
For this purpose, 293T cells were transiently transfected with PPARγ2 (0.5 μg), β-galactosidase (0.1 μg), FABP4-Luc reporter genes (0.2 μg) and sLZIP (0.1 μg). After the transfection, the cells were stimulated with or without 10 nM of RZD and 10 nM of TSA (FIG. 4A). A promoter activity was measured according to luciferase analysis. In the 293T cells, FABP4-Luc reporter genes, sLZIP, PPAR, β-galactosidase, and 100 nM of si-RNAs and HDAC1, 2, 3 and 8 for a control group were expressed. After the transfection, the cells were stimulated with or without 10 nM of RZD, and a promoter activity was measured (FIG. 4B). 293T cells were temporarily transfected with FABP4-Luc reporter genes, PPARγ2, β-galactosidase, HDAC3 (0.5 μg) and sLZIP (0.1 μg). After the transfection, the cells were stimulated with or without 10 nM of RZD, and luciferase analysis was performed (FIG. 4C). A luciferase activity was normalized to a β-galactosidase activity and represented as a relative intensity (fold change). All experiments were repeated three times, and bars in the graph represent mean±standard deviation. GFP-sLZIP expression constructs were expressed in C3H10T1/2 cells, rabbit anti-HDAC3 antibodies and Texas Red-labeled anti-rabbit antibodies were used and analysis was performed under a fluorescence microscope. The nucleus was stained with DAPI (FIG. 4D). […]

PPARγ2 transcriptional activity (relative luciferase activity): inhibited
B1: N domains of sLZIP: N-terminal deletion mutant of sLZIP (1-228) (protein)
chain: MELELDAGDQDLLAFLLEESGDLGTAPDEAVRAPLDWALPLSEVPSDWEVDDLLCSLLSPPASLNILSSSNPCLVHHDHTYSLPRETVSMDLESESCRKEGTQMTPQHMEELAEQEIARLVLTDEEKSLLEKEGLILPETLPLTKTEEQILKRVRRKIRNKRSAQESRRKKKVYVGGLESRVLKYTAQNMELQNKVQLLEEQNLSLLDQLRKLQAMVIEISNKTSSSS
modifications: left off: a dimerising Fc or GST

sLZIP-mediated PPARγ2 transcriptional activity (sLZIP 0.1 μg together with HDAC3 0.5 μg, with or without 10 nM RZD): significantly down-regulated
B2: sLZIP: human small leucine-zipper protein, isoform of LZIP, 354 amino acids, no transmembrane domain, GenBank FJ263669, SEQ ID NO: 1 (protein, listed as Homo sapiens)
chain: MELELDAGDQDLLAFLLEESGDLGTAPDEAVRAPLDWALPLSEVPSDWEVDDLLCSLLSPPASLNILSSSNPCLVHHDHTYSLPRETVSMDLESESCRKEGTQMTPQHMEELAEQEIARLVLTDEEKSLLEKEGLILPETLPLTKTEEQILKRVRRKIRNKRSAQESRRKKKVYVGGLESRVLKYTAQNMELQNKVQLLEEQNLSLLDQLRKLQAMVIEISNKTSSSSMYSSDTRGSLPAEHGVLSRQLRALPSEDPYQLELPALQSEVPKDSTHQWLDGSDCVLQAPGNTSCLLHYMPQAPSAEPPLEWPFPDLFSEPLCRGPILPLQANLTRKGGWLPTGSPSVILQDRYSG
transcriptional activity of PPARγ2 (relative luciferase activity) (sLZIP 0.1 μg, cells treated with 10 nM TSA): did not decrease the transcriptional activity of PPARγ2 | transcriptional activity of PPARγ2 (relative luciferase activity) (sLZIP 0.1 μg, no TSA): inhibits the transcriptional activity of PPARγ2 | transcriptional activity of PPARγ2 (relative luciferase activity) (sLZIP 0.1 to 0.5 μg, with or without 10 nM RZD, PZD or TZD, 24 hours): inhibits the transcriptional activity of PPARγ2 in a concentration-dependent manner | PPARγ2 transcriptional activity (relative luciferase activity): still inhibited the PPARγ2 transcriptional activity

Source: patent publication US10456446B2, “Use of human small leucine zipper protein in osteogenesis procedure” (Korea University Research and Business Foundation, priority 2013, dated 2019)
